Ten molecules from patent US20080176792A1, “VEGFR-1 TARGETING PEPTIDES” (priority 2000, published 2008) can be followed below.

One experiment concerns KS1767 cells. As to the kind of experiment: BRASIL binding of phage to KS1767 cells, with synthetic peptide competition. In kind it is cell-based. To be noted: for effect of soluble peptide on RGD-4C phage binding to KS1767 cells: competition experiment. On the procedure: FIG. 2A. BRASIL method optimization. A single-cell suspension of Kaposi sarcoma-derived cells (KS1767) was incubated with increasing titers of a phage displaying an alpha v integrin-binding motif (RGD-4C phage) or a control phage with no peptide insert (Fd phage). KS1767 cells were chosen because they express high levels of alpha v integrins. Cells and phage were incubated for 4 hours on ice (to prevent phage internalization) and centrifuged for 10 minutes at 10,000 g. The phage bound to the KS1767 cells were recovered by infection of a host E. coli, and plated in LB/tet agar plates at 37° C. overnight. Finally, the phage transducing units were counted. Extremely low backgrounds were observed. Under non-saturated conditions, a conservative mean estimate of the enrichment of RGD-4C phage in relation to Fd phage is 500-1000. This experiment was repeated three times with similar results. Mean and standard deviation are shown.
Cells were harvested with phosphate-buffered saline (PBS) and 5 mM EDTA, washed with MEM, and re-suspended in MEM containing 1% BSA at 10^6 cells/ml and incubated with phage in 1.5 ml Eppendorf tubes. After 4 h, 100 μl of the cell-phage suspension was gently transferred to the top of a non-miscible organic lower phase (200 μl in a 400 μl-Eppendorf tube) and centrifuged at 10,000 g for 10 minutes. The preferred organic phase combination consisted of a mixture of dibutyl phthalate:cyclohexane (9:1 [v/v]; ρ=1.03 g/ml). BRASIL has been attempted with other phthalate admixtures with the appropriate density (for example, dibutyl phthalate:diisooctyl phthalate; 4:6 [v/v]) with similar results. The tube was snap frozen in liquid nitrogen, the bottom of the tube sliced off, and the cell-phage pellet transferred to a new tube. Bound phage were rescued by infection with 200 μl of E. coli K91kan host bacteria in log phase. To evaluate binding specificity, phage and cells were incubated with the cognate or control synthetic peptides for competition assays.
KS1767 cells were detached with cold EDTA and re-suspended in MEM containing 1% BSA. […] The cell suspension was incubated with RGD-4C phage or a control phage with no peptide insert (fd-tet phage). Increasing amounts of either phage were added to the cells in suspension and the cell-phage admixture was incubated for 4 hr on ice. BRASIL was performed on ice to minimize post-binding events such as ligand-receptor internalization by the target cells. The cells were separated by centrifugation through the organic phase as described above. Bound phage were recovered and phage TU were counted. To compare BRASIL to conventional cell panning methods that require an additional washing step, 200 μl of the cell suspension were incubated with phage for 4 hr on ice. […]

In another experiment the test system is RT4 tumor cells. As to the kind of experiment: Phage attachment to subconfluent cell monolayer, with peptide competition. Type of experiment: cell-based, human. To be noted: increasing amounts of peptide.
A further experiment addresses T1, human VEGFR-1 (Homo sapiens, UniProt P17948).
T1 construct: purchased Oncogene Research Products, Boston, Mass
Briefly: Phage binding to immobilized purified receptor, with competition. To be noted: for blocking of clone 19 phage binding to VEGF-R1 by competitor: competitor pre-incubated with immobilized receptor, PDGF-BB up to 200 ng/ml. As for the experimental part:
(§1) Human VEGFR-1, human VEGFR-2, rat NRP-1, and rat NRP-2 (1 μg in 50 μl of PBS) were immobilized on microtiter well plates overnight at 4° C. The wells were washed twice with PBS, blocked with PBS containing 3% BSA for 2 h at room temperature, and then incubated with 10^9 TU of either […] (SEQ ID NO:6) phage, […] (SEQ ID NO:11) phage, or fd-tet phage in 50 μl of PBS/1.5% BSA. After 1 hr at room temperature, wells were washed nine times with PBS and phage were recovered by bacterial infection. Serial dilutions were plated onto Luria-Bertani (LB) medium supplemented with tetracycline. VEGF165, PDGF-BB, or synthetic peptides were used at the indicated concentrations and pre-incubated with the immobilized proteins to evaluate competitive inhibition of phage binding. ELISA with either polyclonal anti-VEGFR-1 serum or anti-human IgG (VEGFR-2, NRP-1, and NRP-2) confirmed the presence and concentration of the immobilized receptors on the microtiter plates. […] Following three washes, VEGF165 binding was evaluated by ELISA by using anti-VEGF specific antibodies (data not shown).

The target in another experiment is T2, rat NRP-1 (Rattus norvegicus, UniProt Q9QWJ9).
T2 construct: purchased R&D Systems Minneapolis, Minn
Described as above. The note with it: competitor pre-incubated with immobilized receptor; PDGF-BB up to 200 ng/ml. As for the experimental part: as §1

The subject of a further experiment is porcine bladder mucosa. Briefly: Dot blot chamber assay after removal of the GAG-layer. Type of experiment: cell-based. To be noted: 0.1M HCl for 2 min; relative to untreated mucosa set to 1. As for the experimental part: FIG. 10. Influence of the GAG-layer on phage binding. In the dot blot chamber assay portions of a porcine bladder mucosa were treated with 0.1M HCl for 2 min prior to remove the GAG-layer. Binding to treated surface is given relative to untreated surface, that was set as 1. Bound phage were detected after intensive washing by infection with log phase K91 bacteria and plating of serial dilutions.
Removal of the glucosaminoglycan- (GAG-) layer on intact mucosa samples was performed as a dot blot chamber assay. Half of the wells were incubated with 200 μl 0.1M HCl per well for 2 min, intensely rinsed with blocking solution and both parts blocked as before. Results are given relative to fd-tet phage to untreated mucosa, that was set to 1.
Using the same assay the influence of the glucosaminoglycan (GAG) layer on binding of several phage to intact mucosa was examined. The GAG-layer was removed as described above. Half of the mucosa of human ureter and porcine bladder specimens were treated inside the dot blot chamber with […] for 2 min, extensively washed and the binding assay performed as before.

Experiment [1] deals with alpha v integrins on KS1767 cells (Kaposi sarcoma-derived cell line) (UniProt P06756). Briefly: BRASIL, phage on KS1767 cells in suspension, transducing units recovered.
Experiment [2] shares this target. As to the kind of experiment: BRASIL on KS1767 cells, competition with peptide in solution.
In a further experiment the target is T3, recombinant rat NRP-1/Fc (rat; human, UniProt Q9QWJ9 22-854, limits assumed).
T3 construct: Bought receptor/Fc chimera; also called rat Neuropilin-1; neuropilin-1; not shown: Fc region of human IgG1
T3 sequence (looked up): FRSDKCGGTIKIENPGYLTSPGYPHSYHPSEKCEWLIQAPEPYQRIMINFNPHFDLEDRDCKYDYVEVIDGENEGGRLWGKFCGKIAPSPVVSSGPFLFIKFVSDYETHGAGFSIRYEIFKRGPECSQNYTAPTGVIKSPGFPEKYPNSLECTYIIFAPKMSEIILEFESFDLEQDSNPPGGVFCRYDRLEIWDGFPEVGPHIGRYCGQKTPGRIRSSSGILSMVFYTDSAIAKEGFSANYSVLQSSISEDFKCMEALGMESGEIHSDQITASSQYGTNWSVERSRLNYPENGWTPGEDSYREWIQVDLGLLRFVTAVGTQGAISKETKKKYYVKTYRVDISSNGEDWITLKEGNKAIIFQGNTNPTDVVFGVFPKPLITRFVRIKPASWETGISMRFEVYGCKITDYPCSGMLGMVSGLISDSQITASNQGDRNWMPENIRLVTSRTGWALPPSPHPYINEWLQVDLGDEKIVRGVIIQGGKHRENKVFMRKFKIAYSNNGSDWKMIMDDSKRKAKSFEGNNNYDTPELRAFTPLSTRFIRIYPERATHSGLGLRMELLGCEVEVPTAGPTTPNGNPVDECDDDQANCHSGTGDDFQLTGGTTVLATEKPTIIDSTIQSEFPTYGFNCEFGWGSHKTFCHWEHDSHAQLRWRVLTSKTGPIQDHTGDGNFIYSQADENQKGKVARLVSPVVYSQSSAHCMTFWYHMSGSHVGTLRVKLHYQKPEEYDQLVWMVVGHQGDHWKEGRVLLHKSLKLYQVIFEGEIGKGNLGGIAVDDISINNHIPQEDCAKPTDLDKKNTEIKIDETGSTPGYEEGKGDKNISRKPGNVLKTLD
Briefly: competition of clone-19 phage binding to immobilized NRP-1 (not shown). On the procedure:
(§2) Human VEGFR-1, human VEGFR-2, rat NRP-1, and rat NRP-2 (1 μg in 50 μl of PBS) were immobilized on microtiter well plates overnight at 4° C. The wells were washed twice with PBS, blocked with PBS containing 3% BSA for 2 h at room temperature, and then incubated with 10⁹ TU of either […] […] (SEQ ID NO:11) phage, or fd-tet phage in 50 μl of PBS/1.5% BSA. After 1 hr at room temperature, wells were washed nine times with PBS and phage were recovered by bacterial infection. Serial dilutions were plated onto Luria-Bertani (LB) medium supplemented with tetracycline. VEGF₁₆₅, PDGF-BB, or synthetic peptides were used at the indicated concentrations and pre-incubated with the immobilized proteins to evaluate competitive inhibition of phage binding.

Experiment [3] deals with T4, recombinant human VEGFR-1 (human, UniProt P17948 27-758, limits assumed).
T4 construct: Bought; immobilized on microtiter wells (1 ug in 50 ul PBS); also called Flt1
Briefly: competition of clone-19 phage binding to immobilized receptors; reference is NRP-1 (not shown). As for the experimental part: as §2

Bridge positions count the residues as written; N and C are the ends. Ends that are not written are not given here.

T1 sequence (P17948 27-1338): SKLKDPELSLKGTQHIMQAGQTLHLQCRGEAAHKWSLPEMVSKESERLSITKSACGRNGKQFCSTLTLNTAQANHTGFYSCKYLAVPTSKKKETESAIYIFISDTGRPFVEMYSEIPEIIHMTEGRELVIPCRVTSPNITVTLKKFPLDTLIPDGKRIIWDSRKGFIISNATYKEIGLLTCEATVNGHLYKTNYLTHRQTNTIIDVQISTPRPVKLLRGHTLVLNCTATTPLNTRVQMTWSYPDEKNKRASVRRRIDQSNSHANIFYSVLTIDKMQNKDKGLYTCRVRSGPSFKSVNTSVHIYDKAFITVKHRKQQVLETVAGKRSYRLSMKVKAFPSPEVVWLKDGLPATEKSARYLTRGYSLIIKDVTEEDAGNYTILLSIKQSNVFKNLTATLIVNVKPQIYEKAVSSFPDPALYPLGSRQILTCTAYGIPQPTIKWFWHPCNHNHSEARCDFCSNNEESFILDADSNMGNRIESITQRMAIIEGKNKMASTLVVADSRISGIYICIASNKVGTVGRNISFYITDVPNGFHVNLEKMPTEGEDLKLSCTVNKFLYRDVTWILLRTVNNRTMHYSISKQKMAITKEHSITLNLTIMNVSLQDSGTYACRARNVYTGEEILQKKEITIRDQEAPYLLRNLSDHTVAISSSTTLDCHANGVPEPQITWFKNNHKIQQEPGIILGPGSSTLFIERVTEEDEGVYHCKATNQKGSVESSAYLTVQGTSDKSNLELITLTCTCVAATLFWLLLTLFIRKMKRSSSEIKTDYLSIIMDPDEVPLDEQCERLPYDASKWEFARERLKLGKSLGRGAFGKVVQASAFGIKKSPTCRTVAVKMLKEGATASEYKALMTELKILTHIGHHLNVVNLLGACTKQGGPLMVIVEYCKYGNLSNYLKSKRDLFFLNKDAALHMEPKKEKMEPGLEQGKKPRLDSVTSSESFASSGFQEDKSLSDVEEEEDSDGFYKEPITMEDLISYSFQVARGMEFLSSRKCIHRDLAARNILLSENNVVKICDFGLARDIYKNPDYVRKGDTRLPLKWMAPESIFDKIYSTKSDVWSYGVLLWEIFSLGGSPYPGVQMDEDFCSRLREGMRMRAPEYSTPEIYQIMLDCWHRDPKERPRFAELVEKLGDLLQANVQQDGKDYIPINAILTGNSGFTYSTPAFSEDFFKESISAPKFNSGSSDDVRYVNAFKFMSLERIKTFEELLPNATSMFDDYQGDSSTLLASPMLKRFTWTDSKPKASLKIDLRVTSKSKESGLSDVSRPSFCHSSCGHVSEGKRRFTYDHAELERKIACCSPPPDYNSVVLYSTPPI
Chain of alpha v integrins on KS1767 cells (Kaposi sarcoma-derived cell line) (P06756 31-1048): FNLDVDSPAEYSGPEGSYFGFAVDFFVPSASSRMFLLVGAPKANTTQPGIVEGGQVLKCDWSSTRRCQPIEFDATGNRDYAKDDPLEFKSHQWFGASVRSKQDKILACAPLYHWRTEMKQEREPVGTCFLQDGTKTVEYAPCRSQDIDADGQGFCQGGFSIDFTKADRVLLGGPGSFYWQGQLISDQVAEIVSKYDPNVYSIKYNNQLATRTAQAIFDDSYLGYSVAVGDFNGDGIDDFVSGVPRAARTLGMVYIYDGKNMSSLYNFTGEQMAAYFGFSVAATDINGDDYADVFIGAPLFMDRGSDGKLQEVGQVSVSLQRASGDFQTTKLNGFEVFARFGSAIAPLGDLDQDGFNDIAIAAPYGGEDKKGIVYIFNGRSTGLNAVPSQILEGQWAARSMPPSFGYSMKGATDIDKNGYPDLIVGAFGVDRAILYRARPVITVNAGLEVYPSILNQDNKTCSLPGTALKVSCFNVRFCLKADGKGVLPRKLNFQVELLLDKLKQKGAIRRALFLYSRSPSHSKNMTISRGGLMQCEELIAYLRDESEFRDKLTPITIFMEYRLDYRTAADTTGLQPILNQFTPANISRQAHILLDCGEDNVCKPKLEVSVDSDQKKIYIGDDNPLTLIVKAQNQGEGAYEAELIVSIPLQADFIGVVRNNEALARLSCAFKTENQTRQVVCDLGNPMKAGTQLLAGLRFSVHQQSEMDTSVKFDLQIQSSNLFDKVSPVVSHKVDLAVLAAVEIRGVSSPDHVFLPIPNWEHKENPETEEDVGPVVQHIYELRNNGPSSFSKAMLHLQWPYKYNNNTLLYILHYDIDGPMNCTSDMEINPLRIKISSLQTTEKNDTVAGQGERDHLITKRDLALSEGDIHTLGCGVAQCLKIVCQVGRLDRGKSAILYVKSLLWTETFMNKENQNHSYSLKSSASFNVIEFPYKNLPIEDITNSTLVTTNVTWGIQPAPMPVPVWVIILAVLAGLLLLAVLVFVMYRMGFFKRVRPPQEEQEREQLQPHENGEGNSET
T2 sequence (Q9QWJ9 with tags, fused parts or gaps limits assumed): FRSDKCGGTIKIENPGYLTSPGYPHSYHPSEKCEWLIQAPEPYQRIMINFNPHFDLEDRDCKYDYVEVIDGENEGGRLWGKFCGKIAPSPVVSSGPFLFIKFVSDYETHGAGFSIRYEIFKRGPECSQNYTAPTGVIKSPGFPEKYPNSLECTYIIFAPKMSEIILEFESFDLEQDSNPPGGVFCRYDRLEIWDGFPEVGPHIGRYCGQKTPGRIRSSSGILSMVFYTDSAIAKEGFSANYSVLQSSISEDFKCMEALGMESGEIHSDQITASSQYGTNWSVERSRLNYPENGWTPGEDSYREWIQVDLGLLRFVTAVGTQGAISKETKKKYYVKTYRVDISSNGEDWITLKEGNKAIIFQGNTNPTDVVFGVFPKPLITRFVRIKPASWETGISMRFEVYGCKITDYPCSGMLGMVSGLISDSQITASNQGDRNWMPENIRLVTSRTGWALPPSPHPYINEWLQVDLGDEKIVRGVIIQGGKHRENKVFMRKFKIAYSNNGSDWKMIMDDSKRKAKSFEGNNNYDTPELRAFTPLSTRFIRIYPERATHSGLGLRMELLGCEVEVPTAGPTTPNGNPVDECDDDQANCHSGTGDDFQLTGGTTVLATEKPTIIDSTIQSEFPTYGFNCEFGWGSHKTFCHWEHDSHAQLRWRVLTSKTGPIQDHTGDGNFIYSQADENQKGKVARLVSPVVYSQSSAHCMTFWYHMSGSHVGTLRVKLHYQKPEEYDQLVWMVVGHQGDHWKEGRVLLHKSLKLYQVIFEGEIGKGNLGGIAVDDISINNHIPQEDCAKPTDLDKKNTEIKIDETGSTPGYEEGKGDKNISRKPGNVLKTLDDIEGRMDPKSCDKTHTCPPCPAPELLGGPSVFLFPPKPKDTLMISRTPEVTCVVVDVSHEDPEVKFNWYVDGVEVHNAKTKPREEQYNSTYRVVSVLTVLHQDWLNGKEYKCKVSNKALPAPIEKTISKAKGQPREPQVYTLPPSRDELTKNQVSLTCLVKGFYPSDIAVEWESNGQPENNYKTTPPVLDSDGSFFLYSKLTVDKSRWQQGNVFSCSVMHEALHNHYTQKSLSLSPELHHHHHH
T4 sequence (P17948 27-758 limits assumed): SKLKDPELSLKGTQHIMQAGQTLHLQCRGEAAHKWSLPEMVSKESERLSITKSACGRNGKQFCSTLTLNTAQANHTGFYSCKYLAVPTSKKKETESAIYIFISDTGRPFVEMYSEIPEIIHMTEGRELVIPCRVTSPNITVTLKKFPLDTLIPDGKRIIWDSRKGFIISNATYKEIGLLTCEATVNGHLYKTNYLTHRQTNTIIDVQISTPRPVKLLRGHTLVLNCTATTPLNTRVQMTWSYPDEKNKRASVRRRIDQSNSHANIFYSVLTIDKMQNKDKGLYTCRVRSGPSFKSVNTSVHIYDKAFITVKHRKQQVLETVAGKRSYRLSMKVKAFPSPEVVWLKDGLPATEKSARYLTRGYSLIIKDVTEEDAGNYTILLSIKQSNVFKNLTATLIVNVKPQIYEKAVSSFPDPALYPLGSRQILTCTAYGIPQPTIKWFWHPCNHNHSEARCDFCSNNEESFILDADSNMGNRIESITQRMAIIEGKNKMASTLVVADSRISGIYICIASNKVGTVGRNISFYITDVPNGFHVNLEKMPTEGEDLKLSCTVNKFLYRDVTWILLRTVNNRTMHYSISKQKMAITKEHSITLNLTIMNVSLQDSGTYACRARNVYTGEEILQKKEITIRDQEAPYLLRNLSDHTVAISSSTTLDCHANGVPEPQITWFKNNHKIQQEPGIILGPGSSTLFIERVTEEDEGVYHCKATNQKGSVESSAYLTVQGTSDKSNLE
Experimental for RT4 tumor cells: A subconfluent monolayer of RT4 tumor cells was incubated with 1×10^8 T.U. of VHALES (SEQ ID NO:25) phage per well in presence of increasing amounts of VHALES (SEQ ID NO:25) and control peptide. […] Bound phage were detected after intensive washing by infection with log phase K91 bacteria and plating of serial dilutions.
All cells were grown to subconfluency in 48 well plates and free binding sites were blocked with 800 μl 30% FCS/DMEM (blocking medium) for 1 hour at 37° C. The blocking solution was then replaced by 200 μl 10% FCS/DMEM (washing medium) containing 1×10^8 cfu of each phage per well. After incubation for 2 hours at 4° C. to prevent unspecific endocytosis, unbound phage were removed by washing 7 times with 500 μl washing medium. For competition experiments increasing concentrations of the corresponding peptide or a control peptide (CARAC, SEQ ID NO:5) were added during the incubation. Bound phage were determined by infection with 500 μl log phase K91 culture and plating of serial dilutions.

As to `O=c1[nH]cc(F)c(=O)[nH]1` [CARAC, reference compound], the “effect of soluble peptide on RGD-4C phage binding to KS1767 cells” value (“effect of soluble peptide” below) in the experiment with KS1767 cells was “no effect”. Also, the “effect of peptide on VHALES phage binding to RT4 tumor cells” value with RT4 tumor cells was “unchanged and not”.

For CDCRGDCFC [RGD-4C peptide], the “effect of soluble peptide” value in the experiment on KS1767 cells is “completely inhibited”. In the experiment on KS1767 cells (synthetic peptide in solution), the “inhibition of RGD-4C phage binding to KS1767 cells” value is listed as 99.99%.

For CPQPRPLC, the “efficiency in blocking phage binding to VEGF-R1 relative to NRP-1” value in the experiment with human VEGFR-1 (clone 19 phage, VEGF-R1 versus NRP-1) is “approximately 100 fold”. Besides, the “blocking of clone 19 phage binding to VEGF-R1 by competitor” value with human VEGFR-1 is “blocked”. The “blocking of clone 19 phage binding to NRP-1 by competitor” value with rat NRP-1 is given as “blocked”.

In the case of CRIRMSAGC, the “change of phage binding after GAG-removal” value in the experiment with porcine bladder mucosa is listed as “unchanged”.

As for GRGESP, in the experiment on KS1767 cells, the “effect of soluble peptide” value is given as “no effect”.

As for “PDGF-BB: PDGF-BB obtained commercially (R&D Systems) [reference compound]”, the “blocking of clone 19 phage binding to VEGF-R1 by competitor” value in the experiment with human VEGFR-1 is given as “not”. In addition, in the experiment with rat NRP-1, the “blocking of clone 19 phage binding to NRP-1 by competitor” value is given as “not”.

As for RGD-4C phage (peptide), in [1], the enrichment in relation to Fd phage is 500 to 1000 fold and the ratio of RGD4C to Fd phage recovered (enrichment) fell in the range of 100 to 500 fold.

For VHALES [VHALES peptide], the “effect of peptide on VHALES phage binding to RT4 tumor cells” value in the experiment with RT4 tumor cells is on record as “reduced”; with RT4 tumor cells (listed as VHALE) it was “inhibited”.

B1: synthetic RGD-4C peptide, containing the targeting sequence … (SEQ ID NO:9) (peptide)
peptide: CDCRGDCFC
modifications: disulfide (positions not given here); not fully specified; also: cyclized, bonds not given here
In the case of B1, the percent inhibition of RGD-4C phage binding in [2] was 100%.

In the case of CPQPRPLC (disulfide 1-8 (inferred)) [synthetic cognate peptide CPQPRPLC (SEQ ID NO:6)], the binding result with recombinant rat NRP-1/Fc is given as “binds”. For the same molecule, in experiment [3], the “fold efficiency in blocking phage binding, VEGF-R1 against NRP-1” value was about 100 fold.
